Data published in patent US20140274782A1, “AFFINITY REAGENTS AND METHODS FOR DETECTION, PURIFICATION, AND PROTEOMIC ANALYSIS OF METHYLATED PROTEINS” (The Board of Trustees of the Leland Stanford Junior …, priority 2013, published 2014).

T1: G9a and GLP (Homo sapiens, UniProt Q96KQ7+Q9H9B1)
T1 sequence (Q96KQ7 2-1210 limits assumed): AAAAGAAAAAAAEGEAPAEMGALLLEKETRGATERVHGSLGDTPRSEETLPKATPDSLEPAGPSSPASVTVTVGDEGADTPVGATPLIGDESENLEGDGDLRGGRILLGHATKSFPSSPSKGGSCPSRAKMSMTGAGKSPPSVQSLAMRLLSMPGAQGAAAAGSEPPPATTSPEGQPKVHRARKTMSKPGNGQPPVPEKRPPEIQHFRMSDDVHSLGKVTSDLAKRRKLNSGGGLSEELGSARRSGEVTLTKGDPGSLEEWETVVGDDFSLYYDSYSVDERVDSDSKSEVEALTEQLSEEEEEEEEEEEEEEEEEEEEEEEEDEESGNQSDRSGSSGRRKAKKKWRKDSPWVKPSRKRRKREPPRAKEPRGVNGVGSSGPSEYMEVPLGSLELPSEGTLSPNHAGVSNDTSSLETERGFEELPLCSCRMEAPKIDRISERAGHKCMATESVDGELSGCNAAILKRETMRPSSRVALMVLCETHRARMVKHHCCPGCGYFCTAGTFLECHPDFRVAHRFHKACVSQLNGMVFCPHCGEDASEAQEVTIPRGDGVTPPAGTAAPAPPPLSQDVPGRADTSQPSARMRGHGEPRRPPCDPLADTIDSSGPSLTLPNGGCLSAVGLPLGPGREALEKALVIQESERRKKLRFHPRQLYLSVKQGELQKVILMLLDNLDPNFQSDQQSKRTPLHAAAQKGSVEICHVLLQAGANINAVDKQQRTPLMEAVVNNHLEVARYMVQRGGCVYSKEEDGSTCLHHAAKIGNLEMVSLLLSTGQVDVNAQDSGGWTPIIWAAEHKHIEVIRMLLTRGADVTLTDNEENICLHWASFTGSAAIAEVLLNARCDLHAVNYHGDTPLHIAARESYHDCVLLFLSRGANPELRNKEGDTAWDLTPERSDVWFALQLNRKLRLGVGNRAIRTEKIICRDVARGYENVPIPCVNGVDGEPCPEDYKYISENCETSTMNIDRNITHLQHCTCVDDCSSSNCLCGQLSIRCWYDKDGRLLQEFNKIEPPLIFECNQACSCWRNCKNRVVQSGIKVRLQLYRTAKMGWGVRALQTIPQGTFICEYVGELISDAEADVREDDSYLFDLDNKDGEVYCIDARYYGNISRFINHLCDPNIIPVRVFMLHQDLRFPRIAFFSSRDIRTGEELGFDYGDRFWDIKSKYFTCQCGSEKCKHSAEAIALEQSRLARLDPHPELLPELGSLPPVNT
T1 sequence (Q9H9B1 2-1298 limits assumed): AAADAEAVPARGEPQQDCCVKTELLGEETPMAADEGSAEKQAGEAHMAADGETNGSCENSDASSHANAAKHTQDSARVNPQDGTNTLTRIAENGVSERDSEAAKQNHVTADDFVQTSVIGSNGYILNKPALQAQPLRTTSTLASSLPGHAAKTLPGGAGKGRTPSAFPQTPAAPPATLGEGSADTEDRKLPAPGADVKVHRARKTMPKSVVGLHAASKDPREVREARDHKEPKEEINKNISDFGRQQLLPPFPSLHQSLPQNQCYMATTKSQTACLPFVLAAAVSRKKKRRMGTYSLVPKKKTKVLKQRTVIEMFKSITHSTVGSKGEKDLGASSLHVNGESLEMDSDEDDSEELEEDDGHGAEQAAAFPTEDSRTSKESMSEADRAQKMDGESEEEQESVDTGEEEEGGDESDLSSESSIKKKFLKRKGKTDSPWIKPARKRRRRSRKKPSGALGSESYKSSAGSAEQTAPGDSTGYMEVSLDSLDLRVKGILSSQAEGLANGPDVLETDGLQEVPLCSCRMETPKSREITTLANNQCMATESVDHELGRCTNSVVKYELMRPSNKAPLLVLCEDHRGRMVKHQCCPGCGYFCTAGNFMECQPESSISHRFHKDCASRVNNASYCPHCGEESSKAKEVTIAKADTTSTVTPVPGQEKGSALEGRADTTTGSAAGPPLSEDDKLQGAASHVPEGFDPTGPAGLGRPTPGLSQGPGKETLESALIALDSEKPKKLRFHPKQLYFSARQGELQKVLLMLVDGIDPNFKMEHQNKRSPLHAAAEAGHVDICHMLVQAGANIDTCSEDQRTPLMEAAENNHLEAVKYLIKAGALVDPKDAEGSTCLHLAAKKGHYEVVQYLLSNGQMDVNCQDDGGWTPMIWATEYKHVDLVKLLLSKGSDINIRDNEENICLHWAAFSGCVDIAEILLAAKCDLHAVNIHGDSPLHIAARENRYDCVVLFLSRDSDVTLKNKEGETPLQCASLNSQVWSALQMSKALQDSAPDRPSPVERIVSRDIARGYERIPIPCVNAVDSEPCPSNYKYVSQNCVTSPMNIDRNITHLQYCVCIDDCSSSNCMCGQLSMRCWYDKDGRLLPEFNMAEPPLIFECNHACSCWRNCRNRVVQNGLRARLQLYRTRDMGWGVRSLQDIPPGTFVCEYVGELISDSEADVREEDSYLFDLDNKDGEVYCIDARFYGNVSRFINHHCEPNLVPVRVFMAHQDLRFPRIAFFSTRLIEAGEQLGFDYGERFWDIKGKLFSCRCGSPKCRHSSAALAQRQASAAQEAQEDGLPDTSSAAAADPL

B1: CPSF3 (protein, UniProt Q9UKF6 2-684, looked up)
Cleavage and polyadenylation …: SAIPAEESDQLLIRPLGAGQEVGRSCIILEFKGRKIMLDCGIHPGLEGMDALPYIDLIDPAEIDLLLISHFHLDHCGALPWFLQKTSFKGRTFMTHATKAIYRWLLSDYVKVSNISADDMLYTETDLEESMDKIETINFHEVKEVAGIKFWCYHAGHVLGAAMFMIEIAGVKLLYTGDFSRQEDRHLMAAEIPNIKPDILIIESTYGTHIHEKREEREARFCNTVHDIVNRGGRGLIPVFALGRAQELLLILDEYWQNHPELHDIPIYYASSLAKKCMAVYQTYVNAMNDKIRKQININNPFVFKHISNLKSMDHFDDIGPSVVMASPGMMQSGLSRELFESWCTDKRNGVIIAGYCVEGTLAKHIMSEPEEITTMSGQKLPLKMSVDYISFSAHTDYQQTSEFIRALKPPHVILVHGEQNEMARLKAALIREYEDNDEVHIEVHNPRNTEAVTLNFRGEKLAKVMGFLADKKPEQGQRVSGILVKRNFNYHILSPCDLSNYTDLAMSTVKQTQAIPYTGPFNLLCYQLQKLTGDVEELEIQEKPALKVFKNITVIQEPGMVVLEWLANPSNDMYADTVTTVILEVQSNPKIRKGAVQKVSKKLEMHVYSKRLEIMLQDIFGEDCVSVKDDSILSVTVDGKTANLNLETRTVECEEGSEDDESLREMVELAAQRLYEALTPVH
B2: HNRNPR (protein, UniProt O43390 2-633, looked up)
Heterogeneous nuclear …: ANQVNGNAVQLKEEEEPMDTSSVTHTEHYKTLIEAGLPQKVAERLDEIFQTGLVAYVDLDERAIDALREFNEEGALSVLQQFKESDLSHVQNKSAFLCGVMKTYRQREKQGSKVQESTKGPDEAKIKALLERTGYTLDVTTGQRKYGGPPPDSVYSGVQPGIGTEVFVGKIPRDLYEDELVPLFEKAGPIWDLRLMMDPLSGQNRGYAFITFCGKEAAQEAVKLCDSYEIRPGKHLGVCISVANNRLFVGSIPKNKTKENILEEFSKVTEGLVDVILYHQPDDKKKNRGFCFLEYEDHKSAAQARRRLMSGKVKVWGNVVTVEWADPVEEPDPEVMAKVKVLFVRNLATTVTEEILEKSFSEFGKLERVKKLKDYAFVHFEDRGAAVKAMDEMNGKEIEGEEIEIVLAKPPDKKRKERQAARQASRSTAYEDYYYHPPPRMPPPIRGRGRGGGRGGYGYPPDYYGYEDYYDDYYGYDYHDYRGGYEDPYYGYDDGYAVRGRGGGRGGRGAPPPPRGRGAPPPRGRAGYSQRGAPLGPPRGSRGGRGGPAQQQRGRGSRGSRGNRGGNVGGKRKADGYNQPDSKRRQTNNQQNWGSQPIAQQPLQQGGDYSGNYGYNNDNQEFYQDTYGQQWK
B3: DAZAP1 (protein, UniProt Q96EP5 1-407, looked up)
DAZ-associated protein 1: MNNSGADEIGKLFVGGLDWSTTQETLRSYFSQYGEVVDCVIMKDKTTNQSRGFGFVKFKDPNCVGTVLASRPHTLDGRNIDPKPCTPRGMQPERTRPKEGWQKGPRSDNSKSNKIFVGGIPHNCGETELREYFKKFGVVTEVVMIYDAEKQRPRGFGFITFEDEQSVDQAVNMHFHDIMGKKVEVKRAEPRDSKSQAPGQPGASQWGSRVVPNAANGWAGQPPPTWQQGYGPQGMWVPAGQAIGGYGPPPAGRGAPPPPPPFTSYIVSTPPGGFPPPQGFPQGYGAPPQFSFGYGPPPPPPDQFAPPGVPPPPATPGAAPLAFPPPPSQAAPDMSKPPTAQPDFPYGQYAGYGQDLSGFGQGFSDPSQQPPSYGGPSVPGSGGPPAGGSGFGRGQNHNVQGFHPYRR
B4: SRP72 (protein, UniProt O76094 2-671, looked up)
Signal recognition particle …: ASGGSGGVSVPALWSEVNRYGQNGDFTRALKTVNKILQINKDDVTALHCKVVCLIQNGSFKEALNVINTHTKVLANNSLSFEKAYCEYRLNRIENALKTIESANQQTDKLKELYGQVLYRLERYDECLAVYRDLVRNSQDDYDEERKTNLSAVVAAQSNWEKVVPENLGLQEGTHELCYNTACALIGQGQLNQAMKILQKAEDLCRRSLSEDTDGTEEDPQAELAIIHGQMAYILQLQGRTEEALQLYNQIIKLKPTDVGLLAVIANNIITINKDQNVFDSKKKVKLTNAEGVEFKLSKKQLQAIEFNKALLAMYTNQAEQCRKISASLQSQSPEHLLPVLIQAAQLCREKQHTKAIELLQEFSDQHPENAAEIKLTMAQLKISQGNISKACLILRSIEELKHKPGMVSALVTMYSHEEDIDSAIEVFTQAIQWYQNHQPKSPAHLSLIREAANFKLKYGRKKEAISDLQQLWKQNPKDIHTLAQLISAYSLVDPEKAKALSKHLPSSDSMSLKVDVEALENSAGATYIRKKGGKVTGDSQPKEQGQGDLKKKKKKKKGKLPKNYDPKVTPDPERWLPMRERSYYRGRKKGKKKDQIGKGTQGATAGASSELDASKTVSSPPTSPRPGSAATVSASTSNIIPPRHQKPAGAPATKKKQQQKKKKGGKGGW

What was measured:
G9a and GLP = molecular target: T1, G9a and GLP; experiment: Triple SILAC pull-down after UNC0638 treatment of 293T cells, DMSO/UNC0638 ratio of protein captured by 3×MBT; format: cell-based; parameters: endogenous in cells; host or cells: HEK 293T; settings: for Relative to UNC0638 UNC Heavy / Relative to UNC0638 UNC Light: SILAC ratio DMSO/UNC0638 of protein pulled down with 3xMBT; for Relative to UNC0638 UNC Heavy: UNC0638 in heavy SILAC media; for Relative to UNC0638 UNC Light: UNC0638 in light SILAC media; for Relative to UNC0638 Average: average of UNC Light and UNC Heavy experiments;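 on all read-outs here: mass spectrometry (Q-Exactive) SILAC quantitation, DMSO/UNC0638 ratio computed after subtracting 3×MBTD355N mutant pull-down background, only proteins with at least twofold 3×MBT over mutant signal considered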
3×MBT domain of L3MBTL1 = experiment: Triple SILAC pull-down, 3xMBT/3xMBTD355N ratio (cytoplasmic, nuclear and chromatin fractions of 293T cells); format: binding, human; settings: SILAC ratio, pull-down 3xMBT vs 3xMBTD355N; for 3xMBT/D355N UNC Heavy: experiment with UNC0638 in heavy SILAC media; for 3xMBT/D355N UNC Light: experiment with UNC0638 in light SILAC media;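 on all read-outs here: proteins quantified with MaxQuant, requiring at least two unique peptides and quantification in both label directions, normalized to the mean of proteins from a digested loading control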

Row | Molecule | Relative to UNC0638 UNC Heavy (G9a and GLP) [log base 2] | Relative to UNC0638 UNC Light (G9a and GLP) [log base 2] | Relative to UNC0638 Average (G9a and GLP) [log base 2] | 3xMBT/D355N UNC Heavy (3×MBT domain of L3MBTL1) [log base 2] | 3xMBT/D355N UNC Light (3×MBT domain of L3MBTL1) [log base 2]
1 | B1 | 0.30 | 0.06 | 0.18 | 3.39 | 0.51
2 | B2 | 0.12 | 0.24 | 0.18 | 3.20 | 3.60
3 | B3 | 0.01 | 0.35 | 0.18 | 2.92 | 2.10
4 | B4 | 0.27 | 0.10 | 0.19 | 1.68 | 2.90
